According to article PMC10864275, “Binding kinetics drive G protein subtype selectivity at the β1-adrenergic receptor” (Nature Communications, 2024):
Where “and” joins values, the source holds several entries; their conditions need not be identical. Identical values can stand only once.

Experiments:
[1] = biological target: avi-β1AR-E (turkey β1-adrenergic receptor, minimally thermostabilised construct with E130 restored, N-terminal biotinylated avi-tag) (turkey) (UniProt P07700); experiment: BLI; biotinylated avi-tagged receptor in LMNG immobilised on streptavidin biosensors; 500 μM xamoterol (partial agonist); mini-Gs in solution at 4 μM (column 4); 20 mM TrisHCl pH 8.0, 150 mM NaCl, 15 mM MgCl2, 0.02% LMNG, 0.1% BSA; 25 °C; 1:1 monophasic local partial fit; each row one of n = …
[2] = biological target: avi-β1AR-W (turkey β1-adrenergic receptor β1AR-MetΔ5, thermostabilised with E130W, N-terminal biotinylated avi-tag) (turkey) (UniProt P07700); experiment: as above
[3] = biological target: avi-β1AR-E (turkey β1-adrenergic receptor, minimally thermostabilised construct with E130 restored, N-terminal biotinylated avi-tag) (turkey) (UniProt P07700); experiment: BLI; biotinylated avi-tagged receptor in LMNG immobilised on streptavidin biosensors; 500 μM isoprenaline; mini-G in solution at a single concentration (0.125-4 μM); 20 mM TrisHCl pH 8.0, 150 mM NaCl, 15 mM MgCl2, 0.02% LMNG, 0.1% BSA; 25 °C; 1:1 monophasic local partial fit; one of n = 3 tips
[4] = biological target: avi-β1AR-W (turkey β1-adrenergic receptor β1AR-MetΔ5, thermostabilised with E130W, N-terminal biotinylated avi-tag) (turkey) (UniProt P07700); experiment: as above
[5] = biological target: avi-β1AR-E (turkey β1-adrenergic receptor, minimally thermostabilised construct with E130 restored, N-terminal biotinylated avi-tag) (turkey) (UniProt P07700); experiment: BLI; biotinylated avi-tagged receptor in LMNG immobilised on streptavidin biosensors; 500 μM salbutamol (partial agonist); mini-Gs in solution at a single concentration (1 or 2 μM); 20 mM TrisHCl pH 8.0, 150 mM NaCl, 15 mM MgCl2, 0.02% LMNG, 0.1% BSA; 25 °C; 1:1 monophasic local partial fit; one of n = 3 tips
[6] = biological target: avi-β1AR-W (turkey β1-adrenergic receptor β1AR-MetΔ5, thermostabilised with E130W, N-terminal biotinylated avi-tag) (turkey) (UniProt P07700); experiment: as above

Sequence of avi-β1AR-W (turkey β1-adrenergic receptor β1AR-MetΔ5, thermostabilised with E130W, N-terminal biotinylated avi-tag) (turkey) (P07700 other isoform, or with tags, fused parts or gaps with the stated changes): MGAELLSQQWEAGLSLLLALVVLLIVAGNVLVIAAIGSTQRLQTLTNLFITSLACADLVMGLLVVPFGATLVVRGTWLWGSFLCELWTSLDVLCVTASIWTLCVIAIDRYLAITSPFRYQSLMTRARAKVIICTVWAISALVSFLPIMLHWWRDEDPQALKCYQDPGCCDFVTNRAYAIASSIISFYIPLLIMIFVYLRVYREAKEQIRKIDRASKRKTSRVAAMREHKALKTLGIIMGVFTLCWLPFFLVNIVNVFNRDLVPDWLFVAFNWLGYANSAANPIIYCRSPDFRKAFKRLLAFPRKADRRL
Sequence of avi-β1AR-E (turkey β1-adrenergic receptor, minimally thermostabilised construct with E130 restored, N-terminal biotinylated avi-tag) (turkey) (P07700 other isoform, or with tags, fused parts or gaps with the stated changes): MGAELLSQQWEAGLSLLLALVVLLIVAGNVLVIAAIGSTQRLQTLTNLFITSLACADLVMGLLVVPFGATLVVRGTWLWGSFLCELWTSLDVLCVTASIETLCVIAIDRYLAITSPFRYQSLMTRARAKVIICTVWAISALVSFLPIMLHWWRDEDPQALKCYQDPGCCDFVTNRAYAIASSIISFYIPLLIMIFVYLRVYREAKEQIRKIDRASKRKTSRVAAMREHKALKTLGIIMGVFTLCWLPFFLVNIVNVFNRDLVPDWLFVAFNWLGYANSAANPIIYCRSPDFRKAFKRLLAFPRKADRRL

Kd [1]: 2370 nM and 2320 nM and 2400 nM
Kd [2]: 3060 nM and 2950 nM and 2900 nM
Kd [3]: 42.9 nM and 46.3 nM and 51.2 nM
Kd [4]: 173 nM and 170 nM and 141 nM
Kd [5]: 977 nM and 962 nM and 946 nM
Kd [6]: 1440 nM
Substance: mini-Gs 393 C96A (domain or fragment)
